Assay results taken from patent US20210147507A1, “METHODS TO AUGMENT OR ALTER SIGNAL TRANSDUCTION” (Bellicum Pharmaceuticals, Inc., priority 2017, published 2021).
Positions count from the first letter of the chain named. Numbers in names are those of the source. One block for each molecule: values may come before it.

Tested on: chimeric Caspase-9 polypeptide
Test: Caspase-9 mutant classes and basal activity (Table 5)
Type: cell-based
Settings: Caspase-9 mutant class; for IC50: ligand IC50 compared with unmodified chimeric Caspase-9
Source text: Even though homo-dimerization of wild-type initiator Caspase-9 is energetically unfavorable, making them mostly monomers in solution [14-16], the low-level inherent basal activity of unprocessed Caspase-9 [15, 17] is enhanced in the presence of the Apaf-1-based “apoptosome”, its natural allosteric regulator [6]. Moreover, supra-physiological expression levels and/or co-localization could lead to proximity-driven dimerization, further enhancing basal activation. The modified cells of the present application may comprise nucleic acids coding for a chimeric Caspase-9 polypeptide having lower basal signaling activity. Polynucleotides comprising Caspase-9 mutants with lower basal signaling may be expressed in the modified cells used for cell therapy herein. In these examples, the modified cells may include a safety switch, comprising a polynucleotide encoding a lower basal signaling chimeric Caspase-9 polypeptide. In the event of an adverse event following administration of the modified cells comprising the chimeric signaling polypeptides or chimeric antigen receptors herein, Caspase-9 activity may be induced by administering the dimerizer to the patient, thus inducing apoptosis and clearance of some, or all of the modified cells. In some examples, the amount of dimerizer administered may be determined as an amount designed to remove the highest amount, at least 80% or 90% of the modified cells. In other examples, the amount of dimerizer administered may be determined as an amount designed to remove only a portion of the modified cells, in order to alleviate negative symptoms or conditions, while leaving a sufficient amount of therapeutic modified cells in the patient, in order to continue therapy. Methods for using chimeric Caspase-9 polypeptides to induce apoptosis are discussed in PCT Application Number PCT/US2011/037381 by Malcolm K. Brenner et al., titled Methods for Inducing Selective Apoptosis, filed May 20, 2011, and in U.S. patent application Ser. No. 13/112,739 by Malcolm K. Brenner et al., titled Methods for Inducing Selective Apoptosis, filed May 20, 2011, issued Jul. 28, 2015 as U.S. Pat. No. 9,089,520. Chimeric caspase polypeptides having modified basal activity are discussed in PCT Application Serial Number PCT/US2014/022004 by David Spencer et al., titled Modified Caspase Polypeptides and Uses Thereof, filed Mar. 7, 2014, published Oct. 9, 2014 as WO2014/164348, and in U.S. patent application Ser. No. 13/792,135 by David Spencer et al., titled Modified Caspase Polypeptides and Uses Thereof, filed Mar. 7, 2014; and in U.S. patent application Ser. No. 14/640,553 by Spencer et al., filed Mar. 6, 2015. Methods for inducing partial apoptosis of the therapeutic modified cells are discussed in PCT Application Number PCT/US14/040964 by Kevin Slawin et al., titled Methods for Inducing Partial Apoptosis Using Caspase Polypeptides, filed Jun. 4, 2014, published Dec. 11, 2014 as WO2014/197638, and in U.S. patent application Ser. No. 14/296,404 by Kevin Slawin et al., titled Methods for Inducing Partial Apoptosis Using Caspase Polypeptides, filed Jun. 4, 2014. These patent applications and publications are all incorporated by reference herein in their entireties.

[1] = basal (ligand-independent) signaling compared with unmodified chimeric Caspase-9

Sequence of chimeric Caspase-9 polypeptide (P62942 2-108 F37V limits assumed): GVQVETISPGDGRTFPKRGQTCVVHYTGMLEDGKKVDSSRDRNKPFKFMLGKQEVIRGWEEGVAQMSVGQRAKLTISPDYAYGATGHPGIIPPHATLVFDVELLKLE

B2: D330A-S144A (protein)
chain: GFGDVGALEALRGNADLAYILSMEPCGHCLIINNVNFCRESGLRTRTGSNIDCEKLRRRFSSLHFMVEVKGDLTAKKMVLALLELARQDHGALDCCVVVILSHGCQASHLQFPGAVYGTDGCPVSVEKIVNIFNGTSCPSLGGKPKLFFIQACGGEQKDHGFEVASTSPEDESPGSNPEPDATPFQEGLRTFDQLAAISSLPTPSDIFVSYSTFPGFVSWRDPKSGSWYVETLDDIFEQWAHSEDLQSLLLRVANAVSVKGIYKQMPGCFNFLRKKLFFKTSASRA
Basal Activity [1]: Decreased
IC50: higher IC50

B4: L329E (protein)
chain: B2 chain with A10S, L195E, A196D
Basal Activity [1]: Decreased
IC50: higher IC50

B6: D330A-S183A (protein)
chain: B2 chain with A10S, S49A
Basal Activity [1]: Decreased
IC50: higher IC50

B7: D330G (protein)
chain: B2 chain with A10S, A196G
Basal Activity [1]: Decreased
IC50: higher IC50

B10: D330V (protein)
chain: B2 chain with A10S, A196V
Basal Activity [1]: Decreased
IC50: higher IC50

B12: D330A-S196A (protein)
chain: B2 chain with A10S, S62A
Basal Activity [1]: Decreased
IC50: higher IC50

B14: S183A (protein)
chain: B2 chain with A10S, S49A, A196D
Basal Activity [1]: Decreased
IC50: higher IC50

B16: D330A-S144D (protein)
chain: B2 chain with A10D
Basal Activity [1]: Decreased
IC50: higher IC50

B17: T317A (protein)
chain: B2 chain with A10S, T183A, A196D
Basal Activity [1]: Decreased
IC50: higher IC50

B18: S195A (protein)
chain: B2 chain with A10S, S61A, A196D
Basal Activity [1]: Decreased
IC50: higher IC50

B19: D330N (protein)
chain: B2 chain with A10S, A196N
Basal Activity [1]: Decreased
IC50: higher IC50

B20: D330S (protein)
chain: B2 chain with A10S, A196S
Basal Activity [1]: Decreased
IC50: higher IC50

B22: D330A-N405Q (protein)
chain: B2 chain with A10S, N271Q
Basal Activity [1]: Decreased
IC50: higher IC50

B23: S196A (protein)
chain: B2 chain with A10S, S62A, A196D
Basal Activity [1]: Decreased
IC50: higher IC50

Further lines, results first:

Basal Activity [1]: Decreased
IC50: higher IC50
B1: N405Q (protein)
chain: B2 chain with A10S, A196D, N271Q

Basal Activity [1]: Decreased
IC50: higher IC50
B3: N405Q-S196D (protein)
chain: B2 chain with A10S, S62D, A196D, N271Q

Basal Activity [1]: Decreased
IC50: higher IC50
B5: F406W (protein)
chain: B2 chain with A10S, A196D, F272W

Basal Activity [1]: Decreased
IC50: higher IC50
B8: N405Q-T317S (protein)
chain: B2 chain with A10S, T183S, A196D, N271Q

Basal Activity [1]: Decreased
IC50: higher IC50
B9: N405Q-S144D (protein)
chain: B2 chain with A10D, A196D, N271Q

Basal Activity [1]: Decreased
IC50: higher IC50
B11: N405Q-S144A (protein)
chain: B2 chain with A196D, N271Q

Basal Activity [1]: Decreased
IC50: higher IC50
B13: F404Y (protein)
chain: B2 chain with A10S, A196D, F270Y

Basal Activity [1]: Decreased
IC50: higher IC50
B15: F406A (protein)
chain: B2 chain with A10S, A196D, F272A

Basal Activity [1]: Decreased
IC50: higher IC50
B21: F406Y (protein)
chain: B2 chain with A10S, A196D, F272Y

Basal Activity (mutants marked * = predicted): Decreased
B24: N405Q-S144Aco (protein, UniProt P55211 1-416, looked up, variant N405Q S144A)
chain: MDEADRRLLRRCRLRLVEELQVDQLWDALLSRELFRPHMIEDIQRAGSGSRRDQARQLIIDLETRGSQALPLFISCLEDTGQDMLASFLRTNRQAAKLSKPTLENLTPVVLRPEIRKPEVLRPETPRPVDIGSGGFGDVGALEALRGNADLAYILSMEPCGHCLIINNVNFCRESGLRTRTGSNIDCEKLRRRFSSLHFMVEVKGDLTAKKMVLALLELAQQDHGALDCCVVVILSHGCQASHLQFPGAVYGTDGCPVSVEKIVNIFNGTSCPSLGGKPKLFFIQACGGEQKDHGFEVASTSPEDESPGSNPEPDATPFQEGLRTFDQLDAISSLPTPSDIFVSYSTFPGFVSWRDPKSGSWYVETLDDIFEQWAHSEDLQSLLLRVANAVSVKGIYKQMPGCFQFLRKKLFFKTS
modifications: codon-optimized; in iC9 construct

Basal Activity [1]: Decreased
IC50: higher IC50
B25: N405Qco (protein, UniProt P55211 1-416, looked up, variant N405Q)
chain: B24 chain with A144S
modifications: codon-optimized; in iC9 construct

Basal Activity (mutants marked * = predicted): Decreased
B26: N405Q-T317Sco (protein, UniProt P55211 1-416, looked up, variant N405Q T317S)
chain: B24 chain with A144S, T317S
modifications: codon-optimized; in iC9 construct
